Changes are numbered by the printed parent chain.
Key:
[1] = target: T1, human EphA2 (form used in the affinity measurements not stated) (human, UniProt P29317 24-534, limits assumed); assay: surface plasmon resonance (BIAcore 3000), purified scFv
T1 construct: The only EphA2 reagent it describes is human EphA2-Fc
Method: 2A4, 2E7 and 12E2 as well as parental EA2 scFv and humanized 4H5 scFv were induced for expression in E. coli in a 1 L culture volume. The supernatants containing soluble, secreted scFv fragments were spun to remove cellular debris then passed over an anti-FLAG column (Sigma) to purify and isolate the variant proteins. The purified affinity optimized variants were analyzed by surface plasmon resonance detection using a BIAcore 3000 instrument (Pharmacia Biosensor, Uppsala, Sweden). […] (see FIG. 5).

[2] = target: T1, human EphA2 (form used in the affinity …); assay: method not stated; humanized clone from framework shuffling, reference chimeric Fab EA2

T1 sequence (P29317 24-534 limits assumed): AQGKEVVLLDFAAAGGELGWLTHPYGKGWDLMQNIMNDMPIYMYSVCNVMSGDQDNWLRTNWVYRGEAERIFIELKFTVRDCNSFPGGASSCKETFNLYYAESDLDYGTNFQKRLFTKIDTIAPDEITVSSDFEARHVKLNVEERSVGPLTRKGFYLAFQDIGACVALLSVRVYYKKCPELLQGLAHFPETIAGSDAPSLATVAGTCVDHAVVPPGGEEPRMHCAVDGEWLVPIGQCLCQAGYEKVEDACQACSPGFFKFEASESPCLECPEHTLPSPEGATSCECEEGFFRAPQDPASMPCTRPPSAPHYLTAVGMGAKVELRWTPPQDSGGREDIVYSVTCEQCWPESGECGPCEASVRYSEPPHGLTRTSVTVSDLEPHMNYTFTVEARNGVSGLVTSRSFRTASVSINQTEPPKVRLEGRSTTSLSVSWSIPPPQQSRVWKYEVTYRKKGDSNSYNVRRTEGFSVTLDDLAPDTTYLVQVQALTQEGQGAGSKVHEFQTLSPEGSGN

B1: 2A4 scFv (affinity optimized combinatorial variant of humanized 4H5) (scFv)
scFv: QVQLLESGGGLVQPGGSLRLSCAASGFTFSSYTMSWVRQAPGQALEWMGTISSRGTYTYYPDSVKGRFTISRDNAKNSLYLQMNSLRAEDTAVYYCAREAIFTHWGRGTLVTVSSGGGGSGGGGSGGGGSDIQLTQSPSSLSASVGDRVTITCKASQDINNYHSWYQQKPGQAPRLLIYRANRLVDGVPDRFSGSGYGTDFTLTINNIESEDAAYYFCLKYNVFPYTFGQGTKVEIK
- Kd [1]: 5.6 nM
- kon [1]: 652000 M⁻¹ s⁻¹

B2: 2E7 scFv (affinity optimized combinatorial variant of humanized 4H5) (scFv)
scFv: B1 scFv with H163G, V223R
- kon [1]: 563000 M⁻¹ s⁻¹

B3: 12E2 scFv (affinity optimized combinatorial variant of humanized 4H5) (scFv)
scFv: B1 scFv with H104Y, H163L, V185F, N222D, V223R
- kon [1]: 518000 M⁻¹ s⁻¹

B4: humanized clone 4H5 (from framework shuffling of murine mAb EA2; format in this comparison not stated) (antibody, V domains shown)
VH: QVQLLESGGGLVQPGGSLRLSCAASGFTFSSYTMSWVRQAPGQALEWMGTISSGGTYTYYPDSVKGRFTISRDNAKNSLYLQMNSLRAEDTAVYYCAREAIFTYWGRGTLVTVSS
VL: DIQLTQSPSSLSASVGDRVTITCKASQDINNYLSWYQQKPGQAPRLLIYRANRLVDGVPDRFSGSGYGTDFTLTINNIESEDAAYYFCLKYDVFPYTFGQGTKVEIK
notes: Compared with chimeric Fab EA2; also called humanized Mab 4H5
- fold increase of affinity against chimeric Fab EA2 [2]: ~20 fold
